B1: CTF3: COUP-TF3 (NR2F6), cDNA driver (protein, UniProt P10588 1-404, looked up)
Nuclear receptor subfamily 2 …: MAMVTGGWGGPGGDTNGVDKAGGYPRAAEDDSASPPGAASDAEPGDEERPGLQVDCVVCGDKSSGKHYGVFTCEGCKSFFKRSIRRNLSYTCRSNRDCQIDQHHRNQCQYCRLKKCFRVGMRKEAVQRGRIPHSLPGAVAASSGSPPGSALAAVASGGDLFPGQPVSELIAQLLRAEPYPAAAGRFGAGGGAAGAVLGIDNVCELAARLLFSTVEWARHAPFFPELPVADQVALLRLSWSELFVLNAAQAALPLHTAPLLAAAGLHAAPMAAERAVAFMDQVRAFQEQVDKLGRLQVDSAEYGCLKAIALFTPDACGLSDPAHVESLQEKAQVALTEYVRAQYPSQPQRFGRLLLRLPALRAVPASLISQLFFMRLVGKTPIETLIRDMLLSGSTFNWPYGSGQ
B2: hMR: Mineralocorticoid Receptor (NR3C2, MR), cDNA driver (protein, UniProt P08235 1-984, looked up)
Mineralocorticoid receptor: METKGYHSLPEGLDMERRWGQVSQAVERSSLGPTERTDENNYMEIVNVSCVSGAIPNNSTQGSSKEKQELLPCLQQDNNRPGILTSDIKTELESKELSATVAESMGLYMDSVRDADYSYEQQNQQGSMSPAKIYQNVEQLVKFYKGNGHRPSTLSCVNTPLRSFMSDSGSSVNGGVMRAVVKSPIMCHEKSPSVCSPLNMTSSVCSPAGINSVSSTTASFGSFPVHSPITQGTPLTCSPNVENRGSRSHSPAHASNVGSPLSSPLSSMKSSISSPPSHCSVKSPVSSPNNVTLRSSVSSPANINNSRCSVSSPSNTNNRSTLSSPAASTVGSICSPVNNAFSYTASGTSAGSSTLRDVVPSPDTQEKGAQEVPFPKTEEVESAISNGVTGQLNIVQYIKPEPDGAFSSSCLGGNSKINSDSSFSVPIKQESTKHSCSGTSFKGNPTVNPFPFMDGSYFSFMDDKDYYSLSGILGPPVPGFDGNCEGSGFPVGIKQEPDDGSYYPEASIPSSAIVGVNSGGQSFHYRIGAQGTISLSRSARDQSFQHLSSFPPVNTLVESWKSHGDLSSRRSDGYPVLEYIPENVSSSTLRSVSTGSSRPSKICLVCGDEASGCHYGVVTCGSCKVFFKRAVEGQHNYLCAGRNDCIIDKIRRKNCPACRLQKCLQAGMNLGARKSKKLGKLKGIHEEQPQQQQPPPPPPPPQSPEEGTTYIAPAKEPSVNTALVPQLSTISRALTPSPVMVLENIEPEIVYAGYDSSKPDTAENLLSTLNRLAGKQMIQVVKWAKVLPGFKNLPLEDQITLIQYSWMCLSSFALSWRSYKHTNSQFLYFAPDLVFNEEKMHQSAMYELCQGMHQISLQFVRLQLTFEEYTIMKVLLLLSTIPKDGLKSQAAFEEMRTNYIKELRKMVTKCPNNSGQSWQRFYQLTKLLDSMHDLVSDLLEFCFYTFRESHALKVEFPAMLVEIISDQLPKVESGNAKPLYFHRK
B3: PR: Progesterone Receptor (NR3C3), cDNA driver (protein, UniProt P06401 1-933, looked up)
Progesterone receptor: MTELKAKGPRAPHVAGGPPSPEVGSPLLCRPAAGPFPGSQTSDTLPEVSAIPISLDGLLFPRPCQGQDPSDEKTQDQQSLSDVEGAYSRAEATRGAGGSSSSPPEKDSGLLDSVLDTLLAPSGPGQSQPSPPACEVTSSWCLFGPELPEDPPAAPATQRVLSPLMSRSGCKVGDSSGTAAAHKVLPRGLSPARQLLLPASESPHWSGAPVKPSPQAAAVEVEEEDGSESEESAGPLLKGKPRALGGAAAGGGAAAVPPGAAAGGVALVPKEDSRFSAPRVALVEQDAPMAPGRSPLATTVMDFIHVPILPLNHALLAARTRQLLEDESYDGGAGAASAFAPPRSSPCASSTPVAVGDFPDCAYPPDAEPKDDAYPLYSDFQPPALKIKEEEEGAEASARSPRSYLVAGANPAAFPDFPLGPPPPLPPRATPSRPGEAAVTAAPASASVSSASSSGSTLECILYKAEGAPPQQGPFAPPPCKAPGASGCLLPRDGLPSTSASAAAAGAAPALYPALGLNGLPQLGYQAAVLKEGLPQVYPPYLNYLRPDSEASQSPQYSFESLPQKICLICGDEASGCHYGVLTCGSCKVFFKRAMEGQHNYLCAGRNDCIVDKIRRKNCPACRLRKCCQAGMVLGGRKFKKFNKVRVVRALDAVALPQPVGVPNESQALSQRFTFSPGQDIQLIPPLINLLMSIEPDVIYAGHDNTKPDTSSSLLTSLNQLGERQLLSVVKWSKSLPGFRNLHIDDQITLIQYSWMSLMVFGLGWRSYKHVSGQMLYFAPDLILNEQRMKESSFYSLCLTMWQIPQEFVKLQVSQEEFLCMKVLLLLNTIPLEGLRSQTQFEEMRSSYIRELIKAIGLRQKGVVSSSQRFYQLTKLLDNLHDLVKQLHLYCLNTFIQSRALSVEFPEMMSEVIAAQLPKILAGMVKPLLFHKK
B4: NR4a2: NR4a2 (NR4A2; NURR1), nuclear hormone receptor cDNA driver (protein, UniProt P43354 1-598, looked up)
Nuclear receptor subfamily 4 …: MPCVQAQYGSSPQGASPASQSYSYHSSGEYSSDFLTPEFVKFSMDLTNTEITATTSLPSFSTFMDNYSTGYDVKPPCLYQMPLSGQQSSIKVEDIQMHNYQQHSHLPPQSEEMMPHSGSVYYKPSSPPTPTTPGFQVQHSPMWDDPGSLHNFHQNYVATTHMIEQRKTPVSRLSLFSFKQSPPGTPVSSCQMRFDGPLHVPMNPEPAGSHHVVDGQTFAVPNPIRKPASMGFPGLQIGHASQLLDTQVPSPPSRGSPSNEGLCAVCGDNAACQHYGVRTCEGCKGFFKRTVQKNAKYVCLANKNCPVDKRRRNRCQYCRFQKCLAVGMVKEVVRTDSLKGRRGRLPSKPKSPQEPSPPSPPVSLISALVRAHVDSNPAMTSLDYSRFQANPDYQMSGDDTQHIQQFYDLLTGSMEIIRGWAEKIPGFADLPKADQDLLFESAFLELFVLRLAYRSNPVEGKLIFCNGVVLHRLQCVRGFGEWIDSIVEFSSNLQNMNIDISAFSCIAALAMVTERHGLKEPKRVEELQNKIVNCLKDHVTFNNGGLNRPNYLSKLLGKLPELRTLCTQGLQRIFYLKLEDLVPPPAIIDKLFLDTLPF
B5: NR4a3: NR4a3 (NR4A3; NOR1), nuclear hormone receptor cDNA driver (protein, UniProt Q92570 1-626, looked up)
Nuclear receptor subfamily 4 …: MPCVQAQYSPSPPGSSYAAQTYSSEYTTEIMNPDYTKLTMDLGSTEITATATTSLPSISTFVEGYSSNYELKPSCVYQMQRPLIKVEEGRAPSYHHHHHHHHHHHHHHQQQHQQPSIPPASSPEDEVLPSTSMYFKQSPPSTPTTPAFPPQAGALWDEALPSAPGCIAPGPLLDPPMKAVPTVAGARFPLFHFKPSPPHPPAPSPAGGHHLGYDPTAAAALSLPLGAAAAAGSQAAALESHPYGLPLAKRAAPLAFPPLGLTPSPTASSLLGESPSLPSPPSRSSSSGEGTCAVCGDNAACQHYGVRTCEGCKGFFKRTVQKNAKYVCLANKNCPVDKRRRNRCQYCRFQKCLSVGMVKEVVRTDSLKGRRGRLPSKPKSPLQQEPSQPSPPSPPICMMNALVRALTDSTPRDLDYSRYCPTDQAAAGTDAEHVQQFYNLLTASIDVSRSWAEKIPGFTDLPKEDQTLLIESAFLELFVLRLSIRSNTAEDKFVFCNGLVLHRLQCLRGFGEWLDSIKDFSLNLQSLNLDIQALACLSALSMITERHGLKEPKRVEELCNKITSSLKDHQSKGQALEPTESKVLGALVELRKICTLGLQRIFYLKLEDLVSPPSIIDKLFLDTLPF
B6: GCNF: Germ Cell Nuclear Factor (NR6A1, GCNF1), cDNA driver (protein, UniProt Q15406 1-480, looked up)
Nuclear receptor subfamily 6 …: MERDEPPPSGGGGGGGSAGFLEPPAALPPPPRNGFCQDELAELDPGTISVSDDRAEQRTCLICGDRATGLHYGIISCEGCKGFFKRSICNKRVYRCSRDKNCVMSRKQRNRCQYCRLLKCLQMGMNRKAIREDGMPGGRNKSIGPVQISEEEIERIMSGQEFEEEANHWSNHGDSDHSSPGNRASESNQPSPGSTLSSSRSVELNGFMAFREQYMGMSVPPHYQYIPHLFSYSGHSPLLPQQARSLDPQSYSLIHQLLSAEDLEPLGTPMLIEDGYAVTQAELFALLCRLADELLFRQIAWIKKLPFFCELSIKDYTCLLSSTWQELILLSSLTVYSKQIFGELADVTAKYSPSDEELHRFSDEGMEVIERLIYLYHKFHQLKVSNEEYACMKAINFLNQDIRGLTSASQLEQLNKRYWYICQDFTEYKYTHQPNRFPDLMMCLPEIRYIAGKMVNVPLEQLPLLFKVVLHSCKTSVGKE

tested on: hG6PD promoter; experiment: NHR-promoter luciferase screen, hG6PD promoter; format: cell-based, human; conditions: G6PD promoter reporter; co-transfected HR, without or with its ligand
How it was run: (§1)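 CV-1 cells were co-transfected with 50 ng NHR (homodimer or NHR/RXR heterodimer), 100 ng promoter-luciferase construct and 50 ng LacZ. Luciferase was normalized to LacZ and to a no-NHR/no-ligand control.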

In order of rising “Luc. act., normalized to lacZ” value:
1. B1  32.5
2. B2  35.2
3. B4  41.1
4. B5  43.4
5. B3  45.4
6. B6  46.1

same assay, conditions: G6PD promoter reporter; co-transfected HR, without or with its ligand; relative to control

In order of rising “Normalized Luc. act., normalized to control” value:
1. B1  0.9
2. B2  0.9
3. B4  1.1
4. B3  1.2
5. B5  1.2
6. B6  1.2

same assay, conditions: hG6PD promoter-luciferase, CV-1 cells, NHR +/- ligand, control = 1.00

In order of rising “luciferase activity normalized to lacZ activity and to a control, hG6PD” value:
1. B1  0.87
2. B2  0.94
3. B4  1.10
4. B5  1.16
5. B3  1.22
6. B6  1.23

tested on: hIFNg promoter; experiment: NHR-promoter luciferase screen, hIFNg promoter; format: cell-based, human; conditions: IFNg promoter; HR component without or with ligand
How it was run: as §1

In order of falling “Luc. act., normalized to lacZ” value:
1. B1  28.5
2. B4  24.3
3. B3  22.6
4. B6  18.4
5. B5  16.4
6. B2  10.4

In order of rising “Normalized Luc. act., normalized to control” value:
1. B2  0.7
2. B5  1.0
3. B6  1.2
4. B3  1.4
5. B4  1.5
6. B1  1.8

same assay, conditions: transcription factor +/- ligand; control = 1.00

In order of falling “hIFNg promoter reporter activity” value:
1. B1  1.79
2. B4  1.53
3. B3  1.42
4. B6  1.15
5. B5  1.03
6. B2  0.65

tested on: mADRP promoter; experiment: NHR-promoter luciferase screen, mADRP promoter; format: cell-based, mouse; conditions: ADRP promoter; HR/ligand component
How it was run: as §1

In order of rising “Luc. act., normalized to lacZ” value:
1. B2  306.4
2. B5  351.6
3. B4  382.8
4. B1  462.7
5. B3  497.2
6. B6  523.7

In order of rising “Normalized Luc. act., normalized to control” value:
1. B2  0.6
2. B5  0.7
3. B4  0.8
4. B1  0.9
5. B3  1.0
6. B6  1.1

same assay, conditions: transcription factor +/- ligand; control = 1.00

In order of falling “mADRP promoter reporter activity” value:
1. B6  1.05
2. B3  1.00
3. B1  0.93
4. B4  0.77
5. B5  0.71
6. B2  0.62
